Test results as given in paper PMC3215855 (Developmental cell, 2011).

T1: LRP6(3-4) (human, UniProt O75581 630-1246, N-linked carbohydrate at five predicted sites)
T1 sequence: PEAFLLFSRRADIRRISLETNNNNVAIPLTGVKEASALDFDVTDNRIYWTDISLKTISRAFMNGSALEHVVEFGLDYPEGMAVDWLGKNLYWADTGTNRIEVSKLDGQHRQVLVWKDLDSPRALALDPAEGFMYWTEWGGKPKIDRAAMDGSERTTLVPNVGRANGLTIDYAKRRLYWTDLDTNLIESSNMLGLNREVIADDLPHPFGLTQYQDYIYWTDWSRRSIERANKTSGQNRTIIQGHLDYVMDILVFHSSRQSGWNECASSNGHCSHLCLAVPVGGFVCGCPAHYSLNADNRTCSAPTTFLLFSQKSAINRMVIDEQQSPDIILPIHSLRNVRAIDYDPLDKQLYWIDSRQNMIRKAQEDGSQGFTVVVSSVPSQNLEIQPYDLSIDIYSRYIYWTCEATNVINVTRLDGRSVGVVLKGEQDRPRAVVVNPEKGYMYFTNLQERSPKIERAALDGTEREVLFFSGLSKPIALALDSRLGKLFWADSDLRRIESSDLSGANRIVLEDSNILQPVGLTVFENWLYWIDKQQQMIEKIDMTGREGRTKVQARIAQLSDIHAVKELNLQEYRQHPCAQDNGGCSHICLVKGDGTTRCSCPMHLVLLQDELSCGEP


Target: T1, LRP6(3-4)
Assay: ITC

| Binder | Kd [nM] | stoichiometry N |
| --- | --- | --- |
| full-length Dkk1 (ligand, human, UniProt O94907 32-266, looked up, one N-linked carbohydrate site) TLNSVLNSNAIKNLPPPLGGAAGHPGSAVSAAPGILYPGGNKYQTIDNYQPYPCAEDEECGTDEYCASPTRGGDAGVQICLACRKRRKRCMRHAMCCPGNYCKNGICVSSDQNHFRGEIEETITESFGNDHSTLDGYSRRTTLSSKMYHTKGQEGSVCLRSSDCASGLCCARHFWSKICKPVLKEGQVCTKHRRKGSHGLEIFQRCYCGEGLSCRIQKDHHQASNSSRLHTCQRH | 67 |  |
| Dkk1_C (domain or fragment, human, UniProt O94907 178-266, looked up) MYHTKGQEGSVCLRSSDCASGLCCARHFWSKICKPVLKEGQVCTKHRRKGSHGLEIFQRCYCGEGLSCRIQKDHHQASNSSRLHTCQRH |  | 1 |
